Sequences and labels used below:
B1: Hairpin Ribozyme (parent)
chain: GUCCUCUUUCACGUGCGCGUGAAAGAGAGAAGUGAACCAGAGAAACACACGUUGUGGUAUAUUACCUGGUA

In the data set the parent is B1. In words: self-cleavage, relative activity (ratio to wild type); higher = more cleavage; co-transcriptional.
In the case of G51U U67G, the self-cleavage was found to be 0.384.

As to U53C G68C, the self-cleavage was 0.267.

For U53C G68A, the self-cleavage turned out to be 0.328. U53C G68U: the self-cleavage is 0.361. With U53C G54C the figure was 0.546; with U53C G54U, 0.573; with U53C C66G, 0.328. Regarding G51C U60C, the self-cleavage worked out at 1.23. For the variant G51C U60A, the self-cleavage is 0.589. Take C50G U53G: the self-cleavage turned out to be 0.0749. With C50G U53A, the self-cleavage was 0.251.

Take G51A A64G: the self-cleavage was 0.666.

In the case of G54C C66G, the self-cleavage turned out to be 0.237. With A49G G56U, the self-cleavage was 0.261. As for A49C G57U, the self-cleavage worked out at 0.0763. As for G54A U62A, the self-cleavage turned out to be 0.188.

On to G54A U62G, for which the self-cleavage worked out at 0.0558. Turning to G54A A71G, the self-cleavage worked out at 0.426.

G54A A71U: the self-cleavage stood at 0.309. U52A U62C: the self-cleavage is 0.187. For the variant U52A U62G, the self-cleavage was determined as 0.0279. On to G51A U58G, for which the self-cleavage worked out at 1.12. For G54A U63A, the self-cleavage is 0.209. Turning to U52A A71C, the self-cleavage came to 1.46. With G54C C65G, the self-cleavage is 0.151. As to G54C C65U, the self-cleavage was 0.132.

For C50A A71U, the self-cleavage amounted to 0.227. With C50A A71C, the self-cleavage worked out at 0.816. With C50A C65U the figure was 0.179. On to U52A A59U, for which the self-cleavage stood at 0.243. G51A G57U: the self-cleavage is 0.299.

Turning to U53C U55C, the self-cleavage came to 0.329. For U53C U55G, the self-cleavage amounted to 0.306.

For U53C U55A, the self-cleavage came to 0.34.

For U53A U62C, the self-cleavage was determined as 0.231. Next, U52C G57U: 0.207; U53A C66G: 0.247. Turning to A49C U62C, the self-cleavage is 0.22. For C50G U58C, the self-cleavage turned out to be 0.297. Regarding C50G U58A, the self-cleavage was found to be 0.0745.

On to A49G U52C, for which the self-cleavage amounted to 0.502. With A49G U52A the figure was 0.614. Next, A49G U52G: 0.371; U53A G68C: 0.249; U53A G68U: 0.2. Consider U53A G68A, for which the self-cleavage is 0.279. Consider G51A G56U, for which the self-cleavage amounted to 0.166. For the variant A49U A64G, the self-cleavage stood at 0.145. With A49U A64C, the self-cleavage came out at 0.163. Regarding G51U G54A, the self-cleavage turned out to be 0.72. On to G51U G54U, for which the self-cleavage is 0.508. G51U U60C: the self-cleavage amounted to 1.49. Consider G51U U60G, for which the self-cleavage was determined as 0.659. With A49C G51U the figure was 0.0813; with A49C G51C, 0.1; with U52A G57A, 0.182. For the variant U52A G57U, the self-cleavage was 0.267. With C50A G69A the figure was 0.152; with U53A G54U, 0.609. Take U53A G54C: the self-cleavage stood at 0.472. As to C50A G56A, the self-cleavage is 0.21. On to C50U G56A, for which the self-cleavage was 0.203. With A49C U63C the figure was 0; with G51U U53G, 0.707. Next, C50G A64U: 0.19; A49C A61G: 0.172; G51U A64U: 0.167. As to U52G A61C, the self-cleavage is 0.147.

U52C A64U: the self-cleavage came out at 0.331.

As to U52A U55G, the self-cleavage was found to be 0.372. As for A49U G56A, the self-cleavage came to 0.136.

G51A U52A: the self-cleavage worked out at 1.15. Take U52C U62G: the self-cleavage was found to be 0.0331. For the variant C48U U67A, the self-cleavage turned out to be 0.119.

With C48U U67C, the self-cleavage came to 0.11. Consider C50A A61G, for which the self-cleavage was found to be 0.12. In the case of G54C A64C, the self-cleavage is 0.104. With A49C A59C the figure was 0.168. A49C A59G: the self-cleavage was 0.167.

Consider C50A U52G, for which the self-cleavage amounted to 0.361. Next, C50A U52C: 0.31; C50A U52A: 0.293.

For A49U A61G, the self-cleavage was determined as 0.13. Take A49U A61U: the self-cleavage was found to be 0.108. For U53G G68A, the self-cleavage was found to be 0.179.

Regarding U52C G69C, the self-cleavage came out at 0.313. For G51C U62A, the self-cleavage was 0.141. Consider G51C U62G, for which the self-cleavage amounted to 0.184. For the variant C50U U60A, the self-cleavage is 0.251. As to A49G A59U, the self-cleavage turned out to be 0.131.

With U52C U58A, the self-cleavage stood at 0.67.

As to C50G G69U, the self-cleavage was found to be 0.156. For the variant U53A A59U, the self-cleavage was found to be 0.129. With U53A A59G the figure was 0.177; with G51U C66U, 0.599; with G51U U58A, 0.439. For the variant A49G A71C, the self-cleavage came to 1.18. For A49G A71U, the self-cleavage turned out to be 0.397.

On to A49G A71G, for which the self-cleavage was 0.526. On to U52A U60A, for which the self-cleavage was found to be 0.988. In the case of U52A U60C, the self-cleavage was found to be 1.42. Consider U52C G56A, for which the self-cleavage stood at 0.211. Consider U53C G56A, for which the self-cleavage worked out at 0.211.

With U53C G56C, the self-cleavage stood at 0.149. As to U52C U60C, the self-cleavage is 1.16. On to U52C U60G, for which the self-cleavage was found to be 0.55. U53G U60G: the self-cleavage was 0.704. On to A49G U60C, for which the self-cleavage was 0.722. Turning to A49G U60A, the self-cleavage was found to be 0.475. Consider U52C C66U, for which the self-cleavage was determined as 0.626. With C50G A71G the figure was 0.202.

C50G A71U: the self-cleavage turned out to be 0.148. Consider U52G U53C, for which the self-cleavage was found to be 1. In the case of C50G G68A, the self-cleavage came to 0.132.

As for U53C U70C, the self-cleavage stood at 1.04.

As to U53C U70G, the self-cleavage was found to be 0.765. As to G54C G57A, the self-cleavage came to 0.0995.

As to C50U A59U, the self-cleavage is 0.272. As for G51C U53C, the self-cleavage came out at 0.828. On to G51C U53G, for which the self-cleavage came out at 0.675. On to G51C C65G, for which the self-cleavage was determined as 0.205. As to U53C G69U, the self-cleavage came out at 0.378. For C50A U55A, the self-cleavage amounted to 0.6. With C50A U55G the figure was 0.419. U52G G69A: the self-cleavage stood at 0.263. With G51A U62G the figure was 0.262. As to C50U A71C, the self-cleavage was found to be 0.925. Consider C50U A71U, for which the self-cleavage amounted to 0.211.

Consider U52G C65A, for which the self-cleavage was 0.782.

For A49U G54U, the self-cleavage stood at 0.36.

In the case of G51C G56U, the self-cleavage was determined as 0.147. With A49C U58A, the self-cleavage turned out to be 0.082. With G51U U52C, the self-cleavage came to 1.

Regarding G51C A64G, the self-cleavage stood at 0.521.

For the variant G51C A64C, the self-cleavage is 0.156. Regarding C50A U67A, the self-cleavage came to 0.153. Next, C50U G51C: 0.256; U53A G69A: 0.484. Next, G51A U53A: 0.869. As for G51A U53G, the self-cleavage was 0.765. On to U53A U58C, for which the self-cleavage is 0.574.

With U53C A61U, the self-cleavage was 0.377.

With U53C A61G, the self-cleavage was 0.254. Next, U52C C65G: 0.426; U52C A71G: 1.08; U52C A71C: 1.51. As for G51C G57C, the self-cleavage was found to be 0.152. With U53A G56U the figure was 0.105; with C50G U60C, 0.353; with C50A C66A, 0.145. Turning to U53A U67A, the self-cleavage turned out to be 0.109. Regarding U53A U67G, the self-cleavage was found to be 0.385. G54A G57C: the self-cleavage was 0.149. Next, U52A U53A: 0.817; U52A U53G: 1.01; C50U U52G: 0.318. For G54C A61U, the self-cleavage turned out to be 0.105. On to G54C A61G, for which the self-cleavage was determined as 0.0386. With G51C G54A the figure was 0.136. In the case of U52G G54C, the self-cleavage stood at 0.42. Regarding U52G G54U, the self-cleavage came out at 0.417.

As for U52G G54A, the self-cleavage was 0.375. As to G54A U67C, the self-cleavage is 0.12. Take G54A U67A: the self-cleavage was 0.206. As for U53G C66A, the self-cleavage is 0.131. Next, U52G A64U: 0.183.

As for A49C A71G, the self-cleavage is 0.177.
